Article PMC11341859

Assays:
[1] = biological target: LY1 ΔARM fragment (ORF1 with residues 2-45 deleted, C-terminus removed by proteolysis in insect cells) (Betatorquevirus isolate LY1 (TTMV-LY1)); assay: cryo-EM structure; Sf9-derived ΔARM fragment virus-like particles, 0.3 mg/ml on graphene oxide grid, Glacios 200 kV, I1 symmetry, 3.9 Å
[2] = biological target: LY1 ORF1 ΔC-term (1-609) (Betatorquevirus isolate LY1 (TTMV-LY1)); assay: cryo-EM structure; Expi293-derived ΔC-term virus-like particles, 0.4 mg/ml, Titan Krios 300 kV, 2.69 Å

Question: For “LY1 ΔARM fragment (ORF1 with residues 2-45 deleted, C-terminus removed by proteolysis in insect cells) (domain or fragment)”, which stoichiometry N [1] is on record?
Answer: The stoichiometry N was 60.

Question: “LY1 ORF1 ΔC-term (1-609) (domain or fragment)” was tested. Which stoichiometry N [2] did it give?
Answer: Its stoichiometry N is 60.
